Consider one substance from patent US20070161040A1.

For this test, the target named is rabbit IgG.

Substance “TEM-PA hybrid protein where one repeated domain of the protein A was internalised (from UniProt P62593 24-195; P38507 212-269; P62593 196-286)” displayed an amount of immobilised rabbit IgG that can be detected of 10 to 100 ng.
